Source: patent US20250250301A1, “DE NOVO DESIGNED BINDERS TARGETING HUMAN EPCAM AND PDL1 RECEPTORS” (University of Washington, priority 2022, published 2025)
Where no end group is shown, it is not given here. AF594 = Alexa Fluor 594

How the values were obtained:
[1] = system: PDL1+SKOV3 cells; experiment: Cell binding assay with AF594-labeled binder, SKOV3 cells; type: cell-based, human
Method: FIG. 3. Cell binding assay. Binding of control antibodies are shown on the top and the binding for the designed binders are shown the bottom. […] These proteins bind their targets with low to mid nanomolar affinities based on octet data (see FIG. 2A-C). […] The rest of the designs with and without conjugated AF594 are well behaved, remain folded to 60-70° C., and completely refold upon cooling to room temperature. We show sequence, secondary structure information, and interface positions for EpcamBind1_cb4, EpcamBind2_cb10, and, PDL1Bind_cb6 in FIG. 5.

[2] = target: T1, PDL1 on PDL1+ SKOV3 cells (human, UniProt Q9NZQ7 19-290); experiment: flow cytometry on PDL1 (+) cells (PDL1+ SKOV3), binder at 500 nM and 5 uM by the legend, fluorescence at 561 nm
T1 construct: whole, on cells
T1 sequence (Q9NZQ7 19-290): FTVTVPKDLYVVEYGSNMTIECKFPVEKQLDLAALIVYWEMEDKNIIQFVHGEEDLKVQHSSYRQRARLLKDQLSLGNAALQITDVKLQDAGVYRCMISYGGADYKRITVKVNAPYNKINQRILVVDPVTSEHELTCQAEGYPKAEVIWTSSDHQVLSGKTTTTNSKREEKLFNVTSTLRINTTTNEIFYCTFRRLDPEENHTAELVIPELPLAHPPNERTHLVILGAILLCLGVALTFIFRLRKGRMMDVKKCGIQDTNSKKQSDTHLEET

[3] = target: T2, human epithelial cell adhesion molecule (EpCAM) receptor, extracellular portion (human, UniProt P16422 24-265); experiment: Octet (BLI), kinetic fitting to association and dissociation; binder 100 nM to 1.56 nM
T2 construct: extracellular domain; also called human EpCAM receptor
T2 sequence (looked up): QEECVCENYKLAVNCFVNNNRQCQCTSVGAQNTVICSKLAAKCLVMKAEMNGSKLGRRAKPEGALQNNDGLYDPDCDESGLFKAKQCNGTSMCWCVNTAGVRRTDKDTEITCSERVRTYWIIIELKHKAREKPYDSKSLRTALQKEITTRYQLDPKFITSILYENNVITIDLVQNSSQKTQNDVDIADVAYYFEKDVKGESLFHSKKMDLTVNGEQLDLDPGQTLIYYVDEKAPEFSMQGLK
Method: FIG. 2A. Octet data for EpcamBind1_cb4. […] Concentrations span a range from 100 nM (top curve) to 1.56 nM (bottom curve) by two-fold dilution.
(§1) In one embodiment of any of the polypeptides of the disclosure, the polypeptide bind to their targets with nanomolar affinity as measured by octet. In the octet experiments, the target protein is immobilized onto an octet sensor and the kinetics of the binder binding to the target are measured over a range of binder concentrations to determine the binders affinity.

[4] = target: T2, human epithelial cell adhesion molecule …; experiment: Octet (BLI), kinetic fitting to association and dissociation; binder 1000 nM to 15.6 nM
Method: FIG. 2B. Octet data for EpcamBind2_cb10. […] Concentrations span a range from 1000 nM (top curve) to 15.6 nM (bottom curve) by two-fold dilution.
as §1

[5] = target: T3, human programmed death-ligand 1 (PDL1) receptor, extracellular portion (human, UniProt Q9NZQ7 19-238); experiment: Octet (BLI), steady state analysis
T3 construct: extracellular domain; also called human PDL1
T3 sequence (Q9NZQ7 19-238): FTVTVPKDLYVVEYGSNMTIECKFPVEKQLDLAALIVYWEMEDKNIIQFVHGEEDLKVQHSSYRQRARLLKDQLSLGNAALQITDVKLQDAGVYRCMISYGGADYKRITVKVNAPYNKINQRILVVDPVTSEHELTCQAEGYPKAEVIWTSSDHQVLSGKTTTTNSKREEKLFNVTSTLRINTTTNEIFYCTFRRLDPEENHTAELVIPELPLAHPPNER

[6] = target: T2, human epithelial cell adhesion molecule …; experiment: Octet (BLI), kinetic fitting to association and dissociation; binder 20 nM to 0.5 nM
Method: FIG. 4. Octet data for gs linked dimer of EpCAMBind1_cterm_cys. […] Concentrations from top curve to bottom curve are 20 nM, 10 nM, 5 nM, 2.5 nM, 1 nM and 0.5 nM.
as §1

[7] = target: T2, human epithelial cell adhesion molecule …; experiment: yeast surface display screen
[8] = target: T3, human programmed death-ligand 1 (PDL1) …; experiment: yeast surface display screen
[9] = target: T4, human EpCAM receptor (Homo sapiens, UniProt P16422); experiment: Octet binding to immobilized human EpCAM
T4 sequence (P16422 24-265 limits assumed): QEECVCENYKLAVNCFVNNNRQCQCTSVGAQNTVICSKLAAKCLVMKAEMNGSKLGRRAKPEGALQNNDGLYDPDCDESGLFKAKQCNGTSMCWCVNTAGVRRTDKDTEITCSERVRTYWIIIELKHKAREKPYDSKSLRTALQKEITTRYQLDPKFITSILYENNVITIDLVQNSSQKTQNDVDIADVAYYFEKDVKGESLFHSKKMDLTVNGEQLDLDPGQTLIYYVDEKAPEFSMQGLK
Method: as §1

PDL1Bind1_E39C-AF594 (DEDTDRVFELLNEFNELREEGDPERAREVLEEAERLAKCLSDPTLESFVQAIKRVY)
binding to PDL1+SKOV3 cells ([1]; 500 nM and 5 uM): specifically binds
nonspecific binding to PDL1− cells ([1]; 5 uM, comparable to control antibody): some minor nonspecific binding

B1: PDL1Bind1_E39C-AF594 (designed binder)
chain: DEDTDRVFELLNEFNELREEGDPERAREVLEEAERLAKC(AF594)LSDPTLESFVQAIKRVY
binding result [2]: binds

B2: EpcamBind1_cb4 (designed binder)
chain: DEERLRELVEELVKELGLSERYKRTLERHLRTALEQGYDEEQIRMNLEQLAQQAREI
notes: Optimized de novo miniprotein (three helices) against human EpCAM
Kd [3]: 5.6 nM

B3: EpcamBind2_cb10 (designed binder)
chain: DEVQHEVHELMVRIHSLVVRGNPEEARKLLEELEELAKKTNNPSYHIAVEALEHVIN
notes: Optimized de novo miniprotein against human EpCAM
Kd [4]: 500 nM

B4: PDL1Bind_cb6 (designed binder)
chain: DEDTDRVFELLNEFNELREEGDPERAREVLEEAERLAKELSDPTLESFVQAIKRVY
notes: Optimized de novo miniprotein against human PDL1
Kd [5]: 2 nM

B5: gs linked dimer of EpCAMBind1_cterm_cys (designed binder)
chain: DEERLRELVEELVKELGLSERYKRTLERHLRTALEQGYDEEQIRMNLEQLAQQAREIGGSGGSDEERLRELVEELVKELGLSERYKRTLERHLRTALEQGYDEEQIRMNLEQLAQQAREI
notes: also called EpCAM1_dimer
Kd [6]: < 0.01 nM

B6: EpcamBind2 (designed binder)
chain: DEVQHEVHELFVRIQELVVRGNPEEARKLLEELEELAKKYNDPSLHIAVEALERVIN
binding result [7]: binds

B7: Pdl1Bind (designed binder)
chain: DEDTRRVMELLHEASELREEGDPERAREVLEEAERLAKELGDPSLERFVQAHKRVY
binding result [8]: binds

B8: gs linked dimer of EpCAMBind1_cterm_cys: gs linked fusion dimer of EpCAMBind1; possibly related to EpCAM1_dimer, SEQ ID NO:18 (protein)
chain: DEERLRELVEELVKELGLSERYKRTLERHLRTALEQGYDEEQIRMNLEQLAQQAREIGGSGGSDEERLRELVEELVKELGLSERYKRTLERHLRTALEQGYDEEQIRMNLEQLAQQAREI
binding affinity in words, EpCAM [9]: low picomolar
estimated Kd ([9]; kinetic fitting to association and dissociation, 20 nM to 0.5 nM): < 0.01 nM
